Assay results taken from patent publication US20240148884A1 (Scripps Research, published 2024).
Read-outs that look alike come from different tables or passages of the source. Bridge positions count the residues as written; N and C are the ends. Square brackets hold non-standard residues; d marks the D form. Ends that are not written are not given here. C20L5A staple = not defined here; L5A(S) staple = not defined here; C20L5A = not defined here; L5A = not defined here; Aib = CC(C)(N)C(=O)O

Experiments:
Assay in all cases: cell-based or functional assay
human GIPR [1] = biological target: T1, human GIPR (human, UniProt P48546 22-466)
T1 sequence (looked up): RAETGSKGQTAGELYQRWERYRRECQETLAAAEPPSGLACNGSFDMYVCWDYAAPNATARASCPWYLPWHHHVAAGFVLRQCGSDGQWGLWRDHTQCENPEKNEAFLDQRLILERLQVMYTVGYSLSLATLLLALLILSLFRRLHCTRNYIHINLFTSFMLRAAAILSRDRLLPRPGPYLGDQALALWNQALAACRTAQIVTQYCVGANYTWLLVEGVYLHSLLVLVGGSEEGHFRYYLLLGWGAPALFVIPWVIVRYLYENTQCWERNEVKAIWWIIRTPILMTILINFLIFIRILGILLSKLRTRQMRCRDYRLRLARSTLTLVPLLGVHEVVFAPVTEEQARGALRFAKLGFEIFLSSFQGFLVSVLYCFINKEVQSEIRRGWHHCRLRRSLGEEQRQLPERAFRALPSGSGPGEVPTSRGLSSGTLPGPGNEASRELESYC

mouse GLP1R = biological target: T2, mouse GLP1R (mouse, UniProt O35659 22-463, limits assumed)
T2 sequence (looked up): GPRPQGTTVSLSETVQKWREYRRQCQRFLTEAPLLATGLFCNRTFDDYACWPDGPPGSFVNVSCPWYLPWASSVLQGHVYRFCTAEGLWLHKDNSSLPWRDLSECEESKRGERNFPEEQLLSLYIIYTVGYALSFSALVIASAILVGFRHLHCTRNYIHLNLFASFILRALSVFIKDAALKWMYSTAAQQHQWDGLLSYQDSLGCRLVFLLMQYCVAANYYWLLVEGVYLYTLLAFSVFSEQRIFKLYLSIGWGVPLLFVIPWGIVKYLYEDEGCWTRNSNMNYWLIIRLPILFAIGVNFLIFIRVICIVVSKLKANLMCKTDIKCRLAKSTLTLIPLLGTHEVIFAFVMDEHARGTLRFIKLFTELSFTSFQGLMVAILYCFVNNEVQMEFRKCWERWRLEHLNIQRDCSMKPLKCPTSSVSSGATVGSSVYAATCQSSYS

cynomolgous monkey GLP1R = cynomolgous monkey GLP1R (cynomolgous monkey)
human GIPR [2] = biological target: T1, human GIPR; remark: listed apart in the source
human GIPR [3] = biological target: T1, human GIPR; remark: listed apart in the source
cynomolgous monkey GIPR = cynomolgous monkey GIPR (cynomolgous monkey)
human GIPR [4] = biological target: T1, human GIPR; remark: listed apart in the source
human GLP-1R [5] = biological target: T3, human GLP-1R (human, UniProt P43220 24-463)
Target sequence in this assay (P43220 24-463): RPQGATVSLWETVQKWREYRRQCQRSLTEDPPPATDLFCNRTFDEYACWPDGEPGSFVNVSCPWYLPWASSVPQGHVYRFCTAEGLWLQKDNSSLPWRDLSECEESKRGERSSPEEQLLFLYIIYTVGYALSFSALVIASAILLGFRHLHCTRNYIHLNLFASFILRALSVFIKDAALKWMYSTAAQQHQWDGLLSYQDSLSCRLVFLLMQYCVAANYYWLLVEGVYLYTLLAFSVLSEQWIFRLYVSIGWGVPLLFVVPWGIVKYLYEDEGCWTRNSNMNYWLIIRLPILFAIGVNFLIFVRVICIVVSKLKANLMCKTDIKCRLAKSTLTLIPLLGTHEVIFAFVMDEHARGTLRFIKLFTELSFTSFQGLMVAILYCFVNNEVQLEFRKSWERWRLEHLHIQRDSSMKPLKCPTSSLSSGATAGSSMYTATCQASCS

human GLP-1R [6] = biological target: T3, human GLP-1R; remark: listed apart in the source
Target sequence in this assay (P43220 24-463): as above

human GIPR [7] = biological target: T1, human GIPR; remark: listed apart in the source
human GLP-1R [8] = biological target: T3, human GLP-1R; remark: listed apart in the source
Target sequence in this assay (P43220 24-463): as above

human GLP-1R [9] = biological target: T3, human GLP-1R; remark: listed apart in the source

Y[Aib]EGTFTSDYSIYLDKCAA[Aib]EFVCWLIAGGPSSGAPPPS-NH2 (linker 17-24 via L5A(S) staple; reading uncertain) [mCMZ371 (C(17-24)-L5A(S))]
In Vitro Potency GIPR EC50 [nM], No Serum (human GIPR [1]): 0.01 nM | In Vitro Potency GLP1R EC50 [nM], Mouse (mouse GLP1R): 0.09 nM | In Vitro Potency GLP1R EC50 [nM], Cyno (cynomolgous monkey GLP1R): 0.11 nM

Y[Aib]EGTFTSDYSIYLDKCAQ[Aib]AFVCWLIAQGPSSGAPPPS-NH2 (linker 17-24 via C20L5A; reading uncertain) [19Q, 21A, 27I, 29Q, C(17-24) - C20L5A]
EC50 of receptor-mediated cAMP synthesis (human GIPR [2]): 0.02 nM

B1: mCMV268 (27I, C(17-24)-C20L5A) (peptide)
peptide: YXEGTFTSDYSIYLDKCAAXEFVCWLIAGGPSSGAPPPS
modifications: Aib at positions 2 and 20; C-terminal amide (NH2); staple C20L5A attached at Cys17 and Cys24
In Vitro Potency GIPR EC50 [nM], 10% FBS (human GIPR [1]): 0.09 nM | In Vitro Potency GIPR EC50 [nM], No Serum (human GIPR [1]): 0.01 nM | EC50 of receptor-mediated cAMP synthesis (02/19) (human GIPR [3]): 0.05 nM | In Vitro Potency GLP1R EC50 [nM], Cyno (cynomolgous monkey GLP1R): 0.22 nM | In Vitro Potency GIPR EC50 [nM], Cyno (cynomolgous monkey GIPR): 0.16 nM

Y[Aib]EGTFTSDYSIYCDKQAA[Aib]CFVNWLIAGGPSSGAPPPS-NH2 (linker 14-21 via L5A; reading uncertain) [27I, C(14-21)-L5A]
EC50 of receptor-mediated cAMP synthesis (human GIPR [4]): 0.03 nM

Y[Aib]EGTFTSDYSIYCDKQAA[Aib]CFVNWLLAGGPSSGAPPPS-NH2 (linker 14-21 via C20L5A staple; reading uncertain) [C(14-21)-C20L5A]
EC50 of receptor-mediated cAMP synthesis (average) (human GIPR [3]): 0.05 nM | EC50 of receptor-mediated cAMP synthesis (human GIPR [4]): 0.05 nM

Y[Aib]EGTYTSDYSIYLDKCAA[Aib]EFVCWLIAGGPSSGAPPPS-NH2 (linker 17-24 via C20L5A; reading uncertain) [6Y, 27I, C(17-24)-C20L5A]
EC50 of receptor-mediated cAMP synthesis (02/19) (human GLP-1R [5]): 0.05 nM

Y[Aib]EGTFTSDYSIYLDKCAA[Aib]EFVCWLLAGGPSSGAPPPS-NH2 (linker 17-24 via C20L5A; reading uncertain) [C(17-24)-C20L5A]
EC50 of receptor-mediated cAMP synthesis (3/25) (human GLP-1R [5]): 0.1 nM | EC50 of receptor-mediated cAMP synthesis (03/26) (human GLP-1R [5]): 0.09 nM | EC50 of receptor-mediated cAMP synthesis (average) (human GLP-1R [5]): 0.09 nM | EC50 of receptor-mediated cAMP synthesis (03/25) (human GIPR [3]): 0.02 nM | EC50 of receptor-mediated cAMP synthesis (03/26) (human GIPR [3]): 0.03 nM | EC50 of receptor-mediated cAMP synthesis (average) (human GIPR [3]): 0.03 nM | EC50 of receptor-mediated cAMP synthesis (human GIPR [2]): 0.05 nM

Y[Aib]EGTFTSDYSIYLDKCAA[Aib]EFVCWLLAGGPSSGAPPPS-NH2 (linker 17-24 via L5A; reading uncertain) [C(17-24)-L5A]
EC50 of receptor-mediated cAMP synthesis (human GIPR [2]): 0.05 nM

B2: mCLZ715 (peptide)
peptide: YXEGTFTSDYSIYKDKQAAXKFVNWLLAGGPSSGAPPPS
modifications: Aib at positions 2 and 20; C-terminal amide (NH2); staple K5 attached at Lys14 and Lys21
EC50 of receptor-mediated cAMP synthesis (human GLP-1R [6]): 0.02 nM | EC50 of receptor-mediated cAMP synthesis (human GIPR [7]): 0.02 nM

B3: mCMC759 (C(14-21)-L5A) (peptide)
peptide: YXEGTFTSDYSIYCDKQAAXCFVNWLLAGGPSSGAPPPS
modifications: Aib at positions 2 and 20; C-terminal amide (NH2); staple L5A attached at Cys14 and Cys21
EC50 of receptor-mediated cAMP synthesis (human GIPR [4]): 0.03 nM | EC50 of receptor-mediated cAMP synthesis (human GIPR [2]): 0.03 nM

B4: mCMD307 (2050-K4) (peptide)
peptide: YXEGTFTSDYSIYKDKQAAXKFVNWLLAGGPSSGAPPPS
modifications: Aib at positions 2 and 20; C-terminal amide (NH2); staple K4 attached at Lys14 and Lys21
EC50 of receptor-mediated cAMP synthesis (human GLP-1R [6]): 0.01 nM | EC50 of receptor-mediated cAMP synthesis (human GIPR [7]): 0.02 nM | EC50 of receptor-mediated cAMP synthesis (02/19) (human GLP-1R [5]): 0.01 nM | EC50 of receptor-mediated cAMP synthesis (3/25) (human GLP-1R [5]): 0.01 nM | EC50 of receptor-mediated cAMP synthesis (03/26) (human GLP-1R [5]): 0.01 nM | EC50 of receptor-mediated cAMP synthesis (average) (human GLP-1R [5]): 0.01 nM | EC50 of receptor-mediated cAMP synthesis (03/25) (human GIPR [3]): 0.01 nM | EC50 of receptor-mediated cAMP synthesis (03/26) (human GIPR [3]): 0.01 nM | EC50 of receptor-mediated cAMP synthesis (average) (human GIPR [3]): 0.02 nM | EC50 of receptor-mediated cAMP synthesis (human GLP-1R [8]): 0.03 nM | EC50 of receptor-mediated cAMP synthesis (human GIPR [4]): 0.01 nM | EC50 of receptor-mediated cAMP synthesis (human GLP-1R [9]): 0.03 nM | EC50 of receptor-mediated cAMP synthesis (human GIPR [2]): 0.01 nM

B5: mCMV266 (27I, C(14-21)-C20L5A) (peptide)
peptide: YXEGTFTSDYSIYCDKQAAXCFVNWLIAGGPSSGAPPPS
modifications: Aib at positions 2 and 20; C-terminal amide (NH2); staple C20L5A attached at Cys14 and Cys21
EC50 of receptor-mediated cAMP synthesis (02/19) (human GLP-1R [5]): 0.03 nM | EC50 of receptor-mediated cAMP synthesis (3/25) (human GLP-1R [5]): 0.05 nM | EC50 of receptor-mediated cAMP synthesis (average) (human GLP-1R [5]): 0.05 nM | EC50 of receptor-mediated cAMP synthesis (human GLP-1R [8]): 0.05 nM
